Laboratory results: US20190248900A1 (Y BIOLOGICS, published 2019)

How the values were obtained:
Assay in all cases: ELISA
[1] = molecular target: T1, DMP1 (Homo sapiens (Human), UniProt Q13316 17-513)
T1 sequence: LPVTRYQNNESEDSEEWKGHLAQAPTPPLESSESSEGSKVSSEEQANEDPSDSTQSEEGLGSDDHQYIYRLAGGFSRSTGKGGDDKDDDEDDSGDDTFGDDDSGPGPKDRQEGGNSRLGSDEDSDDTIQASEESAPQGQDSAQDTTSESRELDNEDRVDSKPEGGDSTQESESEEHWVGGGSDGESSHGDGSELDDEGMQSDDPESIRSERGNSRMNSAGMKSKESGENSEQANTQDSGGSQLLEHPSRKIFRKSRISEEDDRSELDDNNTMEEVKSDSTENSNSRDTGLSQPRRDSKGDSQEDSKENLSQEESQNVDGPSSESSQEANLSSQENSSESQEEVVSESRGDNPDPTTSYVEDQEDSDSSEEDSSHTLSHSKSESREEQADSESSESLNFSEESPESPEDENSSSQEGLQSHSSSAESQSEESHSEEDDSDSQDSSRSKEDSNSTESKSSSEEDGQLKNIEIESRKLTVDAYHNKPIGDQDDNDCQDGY

[2] = molecular target: T2, SOST (Homo sapiens (Human), UniProt Q9BQB4 24-213)
T2 sequence: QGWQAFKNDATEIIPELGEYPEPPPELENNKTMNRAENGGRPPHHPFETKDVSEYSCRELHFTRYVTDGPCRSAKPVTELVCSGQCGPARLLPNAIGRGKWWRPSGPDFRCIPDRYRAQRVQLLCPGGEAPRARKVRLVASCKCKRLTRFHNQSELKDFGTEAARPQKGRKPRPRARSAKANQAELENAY

[3] = molecular target: HAPLN4 (Homo sapiens (Human), UniProt Q86UW8 30-402)
[4] = molecular target: T3, AGR2 (Homo sapiens (Human), UniProt O95994 21-175)
T3 sequence: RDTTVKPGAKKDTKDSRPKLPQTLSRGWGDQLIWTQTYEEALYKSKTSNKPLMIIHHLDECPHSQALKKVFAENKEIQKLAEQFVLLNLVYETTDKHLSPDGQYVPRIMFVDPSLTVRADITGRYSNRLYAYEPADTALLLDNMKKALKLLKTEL

[5] = molecular target: T4, AGR3 (Homo sapiens (Human), UniProt Q8TD06 22-166)
T4 sequence: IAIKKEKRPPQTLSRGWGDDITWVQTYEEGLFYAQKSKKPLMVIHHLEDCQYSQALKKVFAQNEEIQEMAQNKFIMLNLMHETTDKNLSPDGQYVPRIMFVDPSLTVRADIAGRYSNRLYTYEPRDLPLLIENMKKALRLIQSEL

[6] = molecular target: T5, EV12A (Homo sapiens (Human), UniProt P22794 31-133)
T5 sequence: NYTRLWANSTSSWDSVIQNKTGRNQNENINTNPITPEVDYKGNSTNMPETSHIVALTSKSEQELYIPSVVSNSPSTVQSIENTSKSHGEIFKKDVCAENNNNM

[7] = molecular target: MICA (Homo sapiens (Human), UniProt Q29983 24-307)
[8] = molecular target: T6, RTN4RL1 (Homo sapiens (Human), UniProt Q86UN2 25-420)
T6 sequence: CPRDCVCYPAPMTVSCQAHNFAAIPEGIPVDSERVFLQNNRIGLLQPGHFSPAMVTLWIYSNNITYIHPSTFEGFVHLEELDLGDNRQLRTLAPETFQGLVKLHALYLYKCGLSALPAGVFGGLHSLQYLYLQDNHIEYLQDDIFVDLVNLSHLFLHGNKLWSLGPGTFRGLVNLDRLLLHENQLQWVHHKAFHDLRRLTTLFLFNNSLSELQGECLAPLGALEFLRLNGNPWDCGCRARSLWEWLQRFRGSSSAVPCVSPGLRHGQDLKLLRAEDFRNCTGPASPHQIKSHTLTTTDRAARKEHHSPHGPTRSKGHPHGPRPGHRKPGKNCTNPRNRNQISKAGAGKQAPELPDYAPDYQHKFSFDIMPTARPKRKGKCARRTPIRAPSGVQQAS

[9] = molecular target: T7, TLR9 (Homo sapiens (Human), UniProt Q9NR96 26-818)
T7 sequence: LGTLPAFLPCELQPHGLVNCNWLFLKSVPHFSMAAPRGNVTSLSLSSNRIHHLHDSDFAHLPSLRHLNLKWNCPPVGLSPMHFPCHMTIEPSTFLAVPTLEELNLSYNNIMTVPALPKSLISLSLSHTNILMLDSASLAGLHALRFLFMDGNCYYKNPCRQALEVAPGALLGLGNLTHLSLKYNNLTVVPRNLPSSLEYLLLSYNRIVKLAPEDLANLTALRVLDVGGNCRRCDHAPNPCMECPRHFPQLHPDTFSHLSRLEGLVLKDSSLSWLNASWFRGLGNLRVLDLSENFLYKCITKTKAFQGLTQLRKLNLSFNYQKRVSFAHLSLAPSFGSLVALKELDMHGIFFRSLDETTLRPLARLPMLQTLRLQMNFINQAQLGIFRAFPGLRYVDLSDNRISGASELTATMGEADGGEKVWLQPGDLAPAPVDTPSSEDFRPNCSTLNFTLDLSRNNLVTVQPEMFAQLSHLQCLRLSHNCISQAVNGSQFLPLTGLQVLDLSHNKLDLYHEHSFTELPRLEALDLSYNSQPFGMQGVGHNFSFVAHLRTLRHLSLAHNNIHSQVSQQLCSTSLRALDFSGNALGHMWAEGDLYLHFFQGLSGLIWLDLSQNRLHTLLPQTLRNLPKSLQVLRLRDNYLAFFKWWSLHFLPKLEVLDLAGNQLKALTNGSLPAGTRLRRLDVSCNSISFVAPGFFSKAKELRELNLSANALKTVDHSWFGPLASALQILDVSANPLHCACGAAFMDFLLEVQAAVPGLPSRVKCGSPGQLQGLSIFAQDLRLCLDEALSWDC

[10] = molecular target: T8, NRG4 (Homo sapiens (Human), UniProt Q8WWG1 1-62)
T8 sequence: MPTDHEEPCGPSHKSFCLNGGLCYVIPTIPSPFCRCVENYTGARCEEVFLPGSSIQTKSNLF

Measured: binding result

Sequence of HAPLN4 (Q86UW8 30-402 limits assumed): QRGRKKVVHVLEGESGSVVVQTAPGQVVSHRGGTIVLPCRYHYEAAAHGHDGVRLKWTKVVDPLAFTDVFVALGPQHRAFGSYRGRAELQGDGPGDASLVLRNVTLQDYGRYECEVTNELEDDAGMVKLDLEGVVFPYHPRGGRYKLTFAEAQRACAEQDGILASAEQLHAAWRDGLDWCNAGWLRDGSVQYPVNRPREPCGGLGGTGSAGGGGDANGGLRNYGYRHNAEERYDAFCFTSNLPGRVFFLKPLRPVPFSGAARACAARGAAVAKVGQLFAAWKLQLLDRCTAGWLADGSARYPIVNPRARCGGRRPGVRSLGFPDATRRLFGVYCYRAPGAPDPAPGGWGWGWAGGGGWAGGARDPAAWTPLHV
Sequence of MICA (Q29983 24-307 limits assumed): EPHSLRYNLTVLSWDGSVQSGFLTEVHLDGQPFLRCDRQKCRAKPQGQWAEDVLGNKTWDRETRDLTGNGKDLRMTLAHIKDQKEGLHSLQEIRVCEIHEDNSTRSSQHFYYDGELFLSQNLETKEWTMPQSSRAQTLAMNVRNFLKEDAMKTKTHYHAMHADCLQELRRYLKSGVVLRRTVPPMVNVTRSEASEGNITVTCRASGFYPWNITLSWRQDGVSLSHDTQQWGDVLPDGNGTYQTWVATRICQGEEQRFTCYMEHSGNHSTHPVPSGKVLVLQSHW

B1: PD1-41C9 (antibody, V domains shown)
VH: QMQLVESGGGVVQPGRSLRLSCAASGFTFSSYAMHWVRQAPGKGLEWVAVISYDGSNKYYADSVKGRFTISRDNSKNTLYLQMNRLRSEDTAVYYCTTTTFDSWGQGTLITVSS
VL: DIVMTQTPLSLPVTPGEAASISCRSSQSLLDSEDGNTYLDWYLQKPGQSPQLLIYTLSHRASGVPDRFSGSGSGTDFTLKISRVAAEDVGLYYCLQRMGFPYTFGQGTKLDIK
notes: scFv-phage in the screening ELISA; whole IgG in the other assays
no binding (tested: 1 ug/ml): all assays above

B2: PD1-49A2 (antibody, V domains shown)
VH: QVQLVESGGGVVQPGRSLRLSCAASGFTFSSYAMHWVRQAPGKGLEWVAVISYDGSNKYYADSVKGRFTISRDNPKNTLYLQMNSLRAEDTAVYYCTTTTFDSWGRGTLVTVSS
VL: DIVMTQSPLSLPVTPGEPASISCRSSQSLFDSDDGNTYLDWYLQKPGQSPQLLIYTLSHRASGVPDRFSGSGSGTDFTLKISRVEAEDVGIYYCLQRMGFPYTFGQGTKVEIK
notes: scFv-phage in the screening ELISA; whole IgG in the other assays; also called Parent 49A2
no binding (tested: 1 ug/ml): all assays above

B3: PD1-45D6 (antibody, V domains shown)
VH: QVQLVESGGGVVQPGRSLRLSCAASGFTFSSYAMHWVRQVPGKGLEWVAVISYDGNDKYYADSVKGRFTISRDNSKNTLYLQMNSLRAEDTAVYYCVPTTFEYWGQGSQVTVSS
VL: DIVMTQTPLSLPVTPGEAASISCRSSQSLLDSDDGKTYLDWYLQKPGQSPQLLIYTLSYRASGVPDRFSGSGSGTEFNLRISRVEAEDVGIYYCMQRVEFPFTFGQGTKLDIK
notes: as for B1
no binding (tested: 1 ug/ml): all assays above
